The record followed here is the supplement of paper PMC9112550, “Optimization of the antimicrobial peptide Bac7 by deep mutational scanning” (BMC Biology, 2022).

This data set relates to Escherichia coli TOP10. As to the kind of experiment: shrunken log2 fold change of peptide-encoding DNA abundance (4.5 h post-induction vs induction); higher = less antimicrobial activity (less host growth inhibition). The settings on record: time post-induction: 4.5 h; library: site-saturation at positions 5, 18, 19, 20.
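Also: peptides expressed intracellularly from a pBAD plasmid library in pooled LB shake-flask culture, induced with 0.3% L-arabinose, DNA abundance read by NGS, three biological replicates, DESeq2 with apeglm shrinkage.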

Regarding RRIRHRPPRLPRPRPRPLIDPRP, the “shrunken log2 fold change” value was -0.408.

With RRIRPRPPRLPRPRPRPFDRPRP, the “shrunken log2 fold change” value came out at 0.0133.

With RRIRWRPPRLPRPRPRPQFPPRP, the “shrunken log2 fold change” value is 0.0157.

For RRIRVRPPRLPRPRPRPGWRPRP, the “shrunken log2 fold change” value came out at 0.49.

With RRIRCRPPRLPRPRPRPAPQPRP, the “shrunken log2 fold change” value was found to be 0.829.

Regarding RRIRARPPRLPRPRPRPNKYPRP, the “shrunken log2 fold change” value was -0.449.

Turning to RRIRQRPPRLPRPRPRPMKVPRP, the “shrunken log2 fold change” value worked out at 0.0879.

In the case of RRIRIRPPRLPRPRPRPEFCPRP, the “shrunken log2 fold change” value was -0.0252.

Take RRIRERPPRLPRPRPRPECTPRP: the “shrunken log2 fold change” value came out at 0.187.

As to RRIRFRPPRLPRPRPRPHHPPRP, the “shrunken log2 fold change” value was -0.374.

As to RRIRQRPPRLPRPRPRPMWEPRP, the “shrunken log2 fold change” value was 0.00271.

Consider RRIRHRPPRLPRPRPRPINSPRP, for which the “shrunken log2 fold change” value is -0.404.

Consider RRIRPRPPRLPRPRPRPNDPPRP, for which the “shrunken log2 fold change” value is -0.0507.

As for RRIRPRPPRLPRPRPRPIIFPRP, the “shrunken log2 fold change” value is -0.0799.

For the sequence RRIRKRPPRLPRPRPRPAAMPRP, the “shrunken log2 fold change” value worked out at 0.707.

On to RRIRNRPPRLPRPRPRPHMWPRP, for which the “shrunken log2 fold change” value is -0.0758.

On to RRIRVRPPRLPRPRPRPTRGPRP, for which the “shrunken log2 fold change” value turned out to be 0.412.

Take RRIRSRPPRLPRPRPRPFAMPRP: the “shrunken log2 fold change” value was -0.0258.

Regarding RRIRNRPPRLPRPRPRPLEEPRP, the “shrunken log2 fold change” value came to 0.216.

In the case of RRIRYRPPRLPRPRPRPKVPPRP, the “shrunken log2 fold change” value is 0.0215.

As for RRIRVRPPRLPRPRPRPYWLPRP, the “shrunken log2 fold change” value was -0.411.

Regarding RRIRYRPPRLPRPRPRPRMVPRP, the “shrunken log2 fold change” value is -0.475.

In the case of RRIRARPPRLPRPRPRPRKRPRP, the “shrunken log2 fold change” value stood at 0.778.

Consider RRIRHRPPRLPRPRPRPTMMPRP, for which the “shrunken log2 fold change” value is -0.503.

As to RRIRQRPPRLPRPRPRPIEAPRP, the “shrunken log2 fold change” value is -0.00454.

For the sequence RRIRFRPPRLPRPRPRPIMSPRP, the “shrunken log2 fold change” value is -0.0555.

In the case of RRIRLRPPRLPRPRPRPEAKPRP, the “shrunken log2 fold change” value is 0.0204.

As for RRIRMRPPRLPRPRPRPPRTPRP, the “shrunken log2 fold change” value was determined as 1.46.

Regarding RRIRNRPPRLPRPRPRPENAPRP, the “shrunken log2 fold change” value is -0.133.

For the sequence RRIRGRPPRLPRPRPRPENGPRP, the “shrunken log2 fold change” value is 0.223.

As for RRIRCRPPRLPRPRPRPNVCPRP, the “shrunken log2 fold change” value is -0.00167.

With RRIRIRPPRLPRPRPRPYIMPRP, the “shrunken log2 fold change” value was -1.15.

For RRIRSRPPRLPRPRPRPKATPRP, the “shrunken log2 fold change” value turned out to be 0.7.

As to RRIRKRPPRLPRPRPRPFYMPRP, the “shrunken log2 fold change” value was -0.117.

Take RRIRYRPPRLPRPRPRPHGKPRP: the “shrunken log2 fold change” value is 0.0161.

As for RRIRFRPPRLPRPRPRPDTDPRP, the “shrunken log2 fold change” value was 0.479.

Regarding RRIRKRPPRLPRPRPRPVDDPRP, the “shrunken log2 fold change” value worked out at 0.508.

For the sequence RRIRDRPPRLPRPRPRPLCSPRP, the “shrunken log2 fold change” value stood at 0.513.

Consider RRIRARPPRLPRPRPRPLPIPRP, for which the “shrunken log2 fold change” value came out at 0.205.

Consider RRIRSRPPRLPRPRPRPCPSPRP, for which the “shrunken log2 fold change” value was determined as 0.0411.

Consider RRIRVRPPRLPRPRPRPNTDPRP, for which the “shrunken log2 fold change” value was -0.626.

In the case of RRIRWRPPRLPRPRPRPSMDPRP, the “shrunken log2 fold change” value was -0.128.

Turning to RRIRFRPPRLPRPRPRPNRCPRP, the “shrunken log2 fold change” value was -0.717.

Take RRIRWRPPRLPRPRPRPKMTPRP: the “shrunken log2 fold change” value came to 0.175.

As to RRIRFRPPRLPRPRPRPTFAPRP, the “shrunken log2 fold change” value was determined as 0.0698.

Turning to RRIRLRPPRLPRPRPRPMWDPRP, the “shrunken log2 fold change” value is 0.0295.

For the sequence RRIRHRPPRLPRPRPRPAYGPRP, the “shrunken log2 fold change” value is -0.075.

As to RRIRRRPPRLPRPRPRPKASPRP, the “shrunken log2 fold change” value was found to be 0.183.

With RRIRFRPPRLPRPRPRPFARPRP, the “shrunken log2 fold change” value is -0.115.

RRIRSRPPRLPRPRPRPMYFPRP: the “shrunken log2 fold change” value is -0.229.

With RRIRSRPPRLPRPRPRPEIHPRP, the “shrunken log2 fold change” value is 0.0186.

On to RRIRQRPPRLPRPRPRPEVYPRP, for which the “shrunken log2 fold change” value was -0.0137.

For RRIRLRPPRLPRPRPRPSEYPRP, the “shrunken log2 fold change” value was -0.675.

Regarding RRIRDRPPRLPRPRPRPVQGPRP, the “shrunken log2 fold change” value is -0.01.

With RRIRFRPPRLPRPRPRPCRAPRP, the “shrunken log2 fold change” value is 0.0454.

In the case of RRIRDRPPRLPRPRPRPSCGPRP, the “shrunken log2 fold change” value was found to be 0.301.

With RRIRLRPPRLPRPRPRPATSPRP, the “shrunken log2 fold change” value is -0.149.

For the sequence RRIRMRPPRLPRPRPRPQLPPRP, the “shrunken log2 fold change” value is -0.105.

As to RRIRGRPPRLPRPRPRPFNKPRP, the “shrunken log2 fold change” value is -0.158.

For RRIRQRPPRLPRPRPRPMNKPRP, the “shrunken log2 fold change” value is -0.169.

For RRIRDRPPRLPRPRPRPQYQPRP, the “shrunken log2 fold change” value was -0.156.

Consider RRIRIRPPRLPRPRPRPLQPPRP, for which the “shrunken log2 fold change” value was determined as 0.327.

On to RRIRARPPRLPRPRPRPKFKPRP, for which the “shrunken log2 fold change” value is -0.0259.

Regarding RRIRHRPPRLPRPRPRPGEAPRP, the “shrunken log2 fold change” value turned out to be 0.051.

Turning to RRIRKRPPRLPRPRPRPFCRPRP, the “shrunken log2 fold change” value is 0.558.

Regarding RRIRDRPPRLPRPRPRPGFEPRP, the “shrunken log2 fold change” value amounted to 0.175.

RRIRVRPPRLPRPRPRPWGYPRP: the “shrunken log2 fold change” value was -0.0139.

RRIRSRPPRLPRPRPRPNRKPRP: the “shrunken log2 fold change” value is -0.596.

RRIRWRPPRLPRPRPRPKMWPRP: the “shrunken log2 fold change” value was 0.737.

Take RRIRNRPPRLPRPRPRPNLCPRP: the “shrunken log2 fold change” value is -0.0109.

For the sequence RRIRCRPPRLPRPRPRPANYPRP, the “shrunken log2 fold change” value is -0.342.

As for RRIRHRPPRLPRPRPRPPYLPRP, the “shrunken log2 fold change” value was -0.321.

In the case of RRIRCRPPRLPRPRPRPYVCPRP, the “shrunken log2 fold change” value was -0.11.

In the case of RRIRNRPPRLPRPRPRPWDFPRP, the “shrunken log2 fold change” value is -0.00226.

With RRIRLRPPRLPRPRPRPPGCPRP, the “shrunken log2 fold change” value was found to be 0.558.

Consider RRIRVRPPRLPRPRPRPFQLPRP, for which the “shrunken log2 fold change” value worked out at 0.142.

For RRIRMRPPRLPRPRPRPEKYPRP, the “shrunken log2 fold change” value amounted to 0.746.

For RRIRERPPRLPRPRPRPWSKPRP, the “shrunken log2 fold change” value is -0.466.

On to RRIRIRPPRLPRPRPRPWSPPRP, for which the “shrunken log2 fold change” value was -0.269.

Consider RRIRLRPPRLPRPRPRPAGHPRP, for which the “shrunken log2 fold change” value was -0.0387.

Regarding RRIRARPPRLPRPRPRPVTLPRP, the “shrunken log2 fold change” value is -0.121.

Take RRIRQRPPRLPRPRPRPWMEPRP: the “shrunken log2 fold change” value is -3.98e-05.

Consider RRIRARPPRLPRPRPRPSYCPRP, for which the “shrunken log2 fold change” value is -0.311.

Take RRIRHRPPRLPRPRPRPTYFPRP: the “shrunken log2 fold change” value was -0.309.

As for RRIRCRPPRLPRPRPRPVKPPRP, the “shrunken log2 fold change” value turned out to be 0.477.

Regarding RRIRCRPPRLPRPRPRPQQYPRP, the “shrunken log2 fold change” value was -0.709.

As for RRIRSRPPRLPRPRPRPWHVPRP, the “shrunken log2 fold change” value was -0.0882.

For RRIRQRPPRLPRPRPRPQECPRP, the “shrunken log2 fold change” value is -0.00962.

In the case of RRIRTRPPRLPRPRPRPEVDPRP, the “shrunken log2 fold change” value is 0.036.

In the case of RRIRDRPPRLPRPRPRPPKCPRP, the “shrunken log2 fold change” value is 0.0933.

With RRIRKRPPRLPRPRPRPEGPPRP, the “shrunken log2 fold change” value was 0.447.

Take RRIRQRPPRLPRPRPRPLDMPRP: the “shrunken log2 fold change” value stood at 0.0532.

In the case of RRIRTRPPRLPRPRPRPCWCPRP, the “shrunken log2 fold change” value was -0.0474.

With RRIRYRPPRLPRPRPRPFMNPRP, the “shrunken log2 fold change” value is -0.0199.

As for RRIRKRPPRLPRPRPRPDHGPRP, the “shrunken log2 fold change” value stood at 1.01.

Regarding RRIRFRPPRLPRPRPRPEPLPRP, the “shrunken log2 fold change” value was determined as 0.0513.

As for RRIRFRPPRLPRPRPRPCEGPRP, the “shrunken log2 fold change” value was -0.086.

Regarding RRIRARPPRLPRPRPRPMNAPRP, the “shrunken log2 fold change” value came to 0.376.

Turning to RRIRMRPPRLPRPRPRPYQKPRP, the “shrunken log2 fold change” value is -0.0182.

On to RRIRFRPPRLPRPRPRPRCNPRP, for which the “shrunken log2 fold change” value was -0.0427.

In the case of RRIRARPPRLPRPRPRPTMLPRP, the “shrunken log2 fold change” value was determined as 0.15.

Regarding RRIRWRPPRLPRPRPRPYAIPRP, the “shrunken log2 fold change” value is -0.347.

Take RRIRARPPRLPRPRPRPVEYPRP: the “shrunken log2 fold change” value came out at 0.0729.

Consider RRIRWRPPRLPRPRPRPVELPRP, for which the “shrunken log2 fold change” value is -0.00876.

For RRIRNRPPRLPRPRPRPEAYPRP, the “shrunken log2 fold change” value was determined as 0.0274.

On to RRIRWRPPRLPRPRPRPLNDPRP, for which the “shrunken log2 fold change” value was -0.281.

For RRIRCRPPRLPRPRPRPEWSPRP, the “shrunken log2 fold change” value came to 0.144.

As for RRIRERPPRLPRPRPRPVCTPRP, the “shrunken log2 fold change” value is -0.147.

In the case of RRIRHRPPRLPRPRPRPVGFPRP, the “shrunken log2 fold change” value is -0.203.

As for RRIRARPPRLPRPRPRPEDYPRP, the “shrunken log2 fold change” value was -0.0332.

For the sequence RRIRPRPPRLPRPRPRPADLPRP, the “shrunken log2 fold change” value worked out at 0.0166.

In the case of RRIRNRPPRLPRPRPRPEKIPRP, the “shrunken log2 fold change” value was -0.0207.

For RRIRSRPPRLPRPRPRPDDNPRP, the “shrunken log2 fold change” value was determined as 0.00575.

In the case of RRIRERPPRLPRPRPRPWGGPRP, the “shrunken log2 fold change” value is 0.267.

With RRIRHRPPRLPRPRPRPDRRPRP, the “shrunken log2 fold change” value was -0.118.

Turning to RRIRFRPPRLPRPRPRPVKLPRP, the “shrunken log2 fold change” value stood at 0.294.

As for RRIRWRPPRLPRPRPRPDKKPRP, the “shrunken log2 fold change” value is -0.0507.

In the case of RRIRIRPPRLPRPRPRPCNLPRP, the “shrunken log2 fold change” value was -0.877.

As for RRIRGRPPRLPRPRPRPLKGPRP, the “shrunken log2 fold change” value was -0.117.

RRIRFRPPRLPRPRPRPSRRPRP: the “shrunken log2 fold change” value was -0.0576.

Regarding RRIRQRPPRLPRPRPRPTQFPRP, the “shrunken log2 fold change” value is 0.14.

Consider RRIRMRPPRLPRPRPRPSWQPRP, for which the “shrunken log2 fold change” value amounted to 0.305.

Consider RRIRDRPPRLPRPRPRPNHNPRP, for which the “shrunken log2 fold change” value is -0.539.

For the sequence RRIRIRPPRLPRPRPRPSIPPRP, the “shrunken log2 fold change” value is -0.867.

As to RRIRKRPPRLPRPRPRPAVPPRP, the “shrunken log2 fold change” value came to 0.275.
